Values quoted from earlier work, collected in article PMC12851578.

Molecular target: F-actin (Oryctolagus cuniculus) (UniProt P68135)
Conditions: cited from earlier work

LifeAct (from UniProt Q08641)
Kd: 2200 nM
